Assay results as given in article PMC8980529, “Complement Factor H-Related Proteins FHR1 and FHR5 Interact With Extracellular Matrix Ligands, Reduce Factor H Regulatory Activity and Enhance Complement Activation” (Frontiers in Immunology, 2022).
Values belong to the binder of their own block, whether it stands above or below them.

B1: Recombinant human factor H-related protein 5 (natural protein, UniProt Q9BXR6 19-569, looked up)
chain: EGTLCDFPKIHHGFLYDEEDYNPFSQVPTGEVFYYSCEYNFVSPSKSFWTRITCTEEGWSPTPKCLRMCSFPFVKNGHSESSGLIHLEGDTVQIICNTGYSLQNNEKNISCVERGWSTPPICSFTKGECHVPILEANVDAQPKKESYKVGDVLKFSCRKNLIRVGSDSVQCYQFGWSPNFPTCKGQVRSCGPPPQLSNGEVKEIRKEEYGHNEVVEYDCNPNFIINGPKKIQCVDGEWTTLPTCVEQVKTCGYIPELEYGYVQPSVPPYQHGVSVEVNCRNEYAMIGNNMITCINGIWTELPMCVATHQLKRCKIAGVNIKTLLKLSGKEFNHNSRIRYRCSDIFRYRHSVCINGKWNPEVDCTEKREQFCPPPPQIPNAQNMTTTVNYQDGEKVAVLCKENYLLPEAKEIVCKDGRWQSLPRCVESTAYCGPPPSINNGDTTSFPLSVYPPGSTVTYRCQSFYKLQGSVTVTCRNKQWSEPPRCLDPCVVSEENMNKNNIQLKWRNDGKLYAKTGDAVEFQCKFPHKAMISSPPFRAICQEGKFEYPICE
notes: complement factor H-related protein 5 (FHR5), human, recombinant; called 'full-length FHR5' in the discussion; Commercial recombinant protein; The discussion speaks of 'the dimerized full-length protein'; also called FHR5; full-length FHR5; source: bought: Novoprotein via Gentaur (recombinant)
B3: Human vitronectin (natural protein, UniProt P04004 20-478, looked up)
chain: DQESCKGRCTEGFNVDKKCQCDELCSYYQSCCTDYTAECKPQVTRGDVFTMPEDEYTVYDDGEEKNNATVHEQVGGPSLTSDLQAQSKGNPEQTPVLKPEEEAPAPEVGASKPEGIDSRPETLHPGRPQPPAEEELCSGKPFDAFTDLKNGSLFAFRGQYCYELDEKAVRPGYPKLIRDVWGIEGPIDAAFTRINCQGKTYLFKGSQYWRFEDGVLDPDYPRNISDGFDGIPDNVDAALALPAHSYSGRERVYFFKGKQYWEYQFQHQPSQEECEGSSLSAVFEHFAMMQRDSWEDIFELLFWGRTSAGTRQPQFISRDWHGVPGQVDAAMAGRIYISGMAPRPSLAKKQRFRHRNRKGYRSQRGHSRGRNQNSRRPSRATWLSLFSSEESNLGANNYDDYRMDWLVPATCEPIQSVFFFSGDKYYRVNLRTRRVDTVDPPYPRSIAQYWLGCPAPGHL
notes: vitronectin, human; source: bought: Sigma-Aldrich

Columns and labels:
Conditions in all cases: both partners purified
C3(H2O) = biological target: T1, C3(H2O) (human, UniProt P01024 23-667; P01024 672-1663); experiment: ELISA; 10 µg/ml FHR5, CCPs 1-4, CCPs 3-7, CCPs 8-9 and alpha-1-antitrypsin immobilised, incubated with 5 µg/ml C3, C3(H2O) and C3b; detected with anti-human C3
T1 construct: complement C3 beta chain, human; complement C3 alpha chain, human; Same chains as C3; source: generated from purified human C3 (Merck) with ten freeze/thaw cycles
T1 sequence (P01024 23-667, chain 1 of 2): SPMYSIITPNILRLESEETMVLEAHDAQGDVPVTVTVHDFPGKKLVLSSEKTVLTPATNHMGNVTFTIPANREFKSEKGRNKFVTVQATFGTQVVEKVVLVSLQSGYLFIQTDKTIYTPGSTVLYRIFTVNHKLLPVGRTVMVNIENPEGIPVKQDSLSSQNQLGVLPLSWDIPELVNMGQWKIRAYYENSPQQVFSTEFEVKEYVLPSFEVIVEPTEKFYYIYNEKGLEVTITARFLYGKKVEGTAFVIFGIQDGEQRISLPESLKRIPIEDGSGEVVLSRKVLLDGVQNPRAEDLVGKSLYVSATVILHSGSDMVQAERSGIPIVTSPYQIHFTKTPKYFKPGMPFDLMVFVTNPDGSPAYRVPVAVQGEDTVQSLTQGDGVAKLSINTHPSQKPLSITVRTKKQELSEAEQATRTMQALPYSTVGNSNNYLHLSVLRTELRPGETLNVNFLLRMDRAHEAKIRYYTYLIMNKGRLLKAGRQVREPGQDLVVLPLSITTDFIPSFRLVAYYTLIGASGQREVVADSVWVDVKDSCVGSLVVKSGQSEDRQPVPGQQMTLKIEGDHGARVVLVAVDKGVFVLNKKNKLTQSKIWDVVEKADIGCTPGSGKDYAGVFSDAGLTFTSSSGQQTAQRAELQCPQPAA
T1 sequence (P01024 672-1663, chain 2 of 2): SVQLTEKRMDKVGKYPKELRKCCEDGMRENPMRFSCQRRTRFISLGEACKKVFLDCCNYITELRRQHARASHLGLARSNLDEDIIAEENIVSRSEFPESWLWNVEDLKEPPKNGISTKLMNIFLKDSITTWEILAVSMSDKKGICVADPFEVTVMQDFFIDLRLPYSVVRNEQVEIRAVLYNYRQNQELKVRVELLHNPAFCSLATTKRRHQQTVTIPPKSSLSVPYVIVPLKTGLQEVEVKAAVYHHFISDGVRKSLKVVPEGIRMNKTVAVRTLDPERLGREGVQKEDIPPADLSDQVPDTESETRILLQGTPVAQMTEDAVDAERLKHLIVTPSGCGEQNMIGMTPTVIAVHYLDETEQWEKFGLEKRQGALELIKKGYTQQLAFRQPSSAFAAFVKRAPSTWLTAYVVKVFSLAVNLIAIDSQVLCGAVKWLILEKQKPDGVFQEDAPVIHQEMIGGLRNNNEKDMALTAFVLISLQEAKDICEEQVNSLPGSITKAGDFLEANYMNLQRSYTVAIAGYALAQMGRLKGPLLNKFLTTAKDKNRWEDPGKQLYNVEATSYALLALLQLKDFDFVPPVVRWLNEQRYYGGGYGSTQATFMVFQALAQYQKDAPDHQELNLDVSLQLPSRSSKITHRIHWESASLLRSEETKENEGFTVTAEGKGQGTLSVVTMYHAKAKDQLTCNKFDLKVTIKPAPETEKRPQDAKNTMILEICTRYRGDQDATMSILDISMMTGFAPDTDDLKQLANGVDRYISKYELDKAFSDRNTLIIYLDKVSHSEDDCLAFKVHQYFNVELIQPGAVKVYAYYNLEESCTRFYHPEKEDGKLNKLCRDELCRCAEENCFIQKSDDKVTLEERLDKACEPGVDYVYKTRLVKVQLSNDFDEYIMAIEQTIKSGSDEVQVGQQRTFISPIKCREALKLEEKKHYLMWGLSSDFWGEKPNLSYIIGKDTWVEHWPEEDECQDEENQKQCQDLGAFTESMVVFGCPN

Purified human C3b = biological target: T2, Purified human C3b (human, UniProt P01024 23-667; P01024 749-1663); experiment: ELISA; FHR5, CCPs 1-4, CCPs 3-7, CCPs 8-9 and HSA immobilised at 5 µg/ml, blocked with 4% BSA; 20 µg/ml C3b, iC3b, C3c or 10 µg/ml C3d added; detected with anti-human C3 or anti-human C3d
T2 construct: complement C3 beta chain, human; complement C3b alpha' chain, human; also called soluble C3b; fluid-phase C3b; source: bought: Merck (purified human)
T2 sequence (P01024 23-667, chain 1 of 2): as the sequence (P01024 23-667, chain 1 of 2) above
T2 sequence (P01024 749-1663, chain 2 of 2): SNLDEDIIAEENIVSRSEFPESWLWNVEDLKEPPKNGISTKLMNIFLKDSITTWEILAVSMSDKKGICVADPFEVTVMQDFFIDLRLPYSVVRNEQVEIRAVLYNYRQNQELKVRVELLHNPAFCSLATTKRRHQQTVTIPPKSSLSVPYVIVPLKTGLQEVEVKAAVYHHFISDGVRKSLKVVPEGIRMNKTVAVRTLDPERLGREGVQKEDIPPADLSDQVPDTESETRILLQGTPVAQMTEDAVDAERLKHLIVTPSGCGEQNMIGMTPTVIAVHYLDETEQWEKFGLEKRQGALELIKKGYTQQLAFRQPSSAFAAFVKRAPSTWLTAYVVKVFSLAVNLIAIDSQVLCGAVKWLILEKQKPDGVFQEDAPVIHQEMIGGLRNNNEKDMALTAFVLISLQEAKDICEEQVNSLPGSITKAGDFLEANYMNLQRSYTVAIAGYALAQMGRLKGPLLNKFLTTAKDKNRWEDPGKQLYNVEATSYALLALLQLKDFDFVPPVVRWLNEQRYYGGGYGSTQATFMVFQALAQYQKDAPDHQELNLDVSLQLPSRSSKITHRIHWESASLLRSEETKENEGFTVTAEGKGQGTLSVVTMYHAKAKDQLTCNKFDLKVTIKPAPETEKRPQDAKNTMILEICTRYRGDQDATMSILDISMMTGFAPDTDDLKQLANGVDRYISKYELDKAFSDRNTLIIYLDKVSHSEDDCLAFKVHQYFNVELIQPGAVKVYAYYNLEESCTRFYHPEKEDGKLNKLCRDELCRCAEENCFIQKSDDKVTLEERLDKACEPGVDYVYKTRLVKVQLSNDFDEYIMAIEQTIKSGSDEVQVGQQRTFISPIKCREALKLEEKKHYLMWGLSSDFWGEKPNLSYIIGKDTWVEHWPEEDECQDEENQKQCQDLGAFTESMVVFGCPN

Human vitronectin = biological target: B3; experiment: peptide or protein array; ECM proteins (0.5 mg/ml) printed on nitrocellulose-covered slides in triplicates, blocked with 4% BSA; incubated with FHR1 (5, 25, 50 µg/ml) or FHR5 (0.5, 5, 20 µg/ml); detected with goat anti-human FH or anti-FHR5 and Alexa-647 anti-goat IgG; signal above gelatin taken as binding
Purified human factor H = biological target: T3, Purified human factor H (human, UniProt P08603 19-1231); experiment: peptide or protein array; competition: printed ECM proteins incubated with 25 µg/ml FH with or without FHR1 (5, 25, 50 µg/ml) or FHR5 (0.5, 5, 20 µg/ml); bound FH detected with mAb A254 that does not cross-react with FHR1 and FHR5
T3 construct: complement factor H, human, 155-kDa serum glycoprotein, 20 CCP domains; also called FH; source: bought: Merck (purified human)

[1] = biological target: B1; experiment: peptide or protein array; ECM proteins (0.5 mg/ml) printed on nitrocellulose-covered slides in triplicates, blocked with 4% BSA; incubated with FHR1 (5, 25, 50 µg/ml) or FHR5 (0.5, 5, 20 µg/ml); detected with goat anti-human FH or anti-FHR5 and Alexa-647 anti-goat IgG; signal above gelatin taken as binding

Binder: B1
binding result (C3(H2O)): binds | binding result (Purified human C3b): binds

binding result (Human vitronectin): binds
B2: Recombinant human factor H-related protein 1 (natural protein, UniProt Q03591 19-330, looked up)
chain: EATFCDFPKINHGILYDEEKYKPFSQVPTGEVFYYSCEYNFVSPSKSFWTRITCTEEGWSPTPKCLRLCFFPFVENGHSESSGQTHLEGDTVQIICNTGYRLQNNENNISCVERGWSTPPKCRSTDTSCVNPPTVQNAHILSRQMSKYPSGERVRYECRSPYEMFGDEEVMCLNGNWTEPPQCKDSTGKCGPPPPIDNGDITSFPLSVYAPASSVEYQCQNLYQLEGNKRITCRNGQWSEPPKCLHPCVISREIMENYNIALRWTAKQKLYLRTGESAEFVCKRGYRLSSRSHTLRTTCWDGKLEYPTCAKR
notes: complement factor H-related protein 1 (FHR1), human, recombinant; Commercial recombinant protein; also called FHR1; source: bought: Novoprotein via Gentaur (recombinant)

Binder: B3
binding result (Purified human factor H): binds | binding result [1]: binds
